In article PMC3417354 (Analytical biochemistry, 2012):

B1: divalent p21 peptide (peptide)
chain: KRRQTSMTDFYHSKRRLIFSGGSGGSGGSGGSGGSGGSKRRQTSMTDFYHSKRRLIFS
B2: trivalent p21 peptide (peptide)
chain: KRRQTSMTDFYHSKRRLIFSGGSGGSGGSGGSGGSGGSKRRQTSMTDFYHSKRRLIFSGGSGGSGGSGGSGGSGGSKRRQTSMTDFYHSKRRLIFS

Target: human proliferating cell nuclear antigen (PCNA), no tag (human, UniProt P12004 1-261)
Assay: fluorescence polarisation

Sequence of human proliferating cell nuclear antigen (PCNA), no tag (P12004 whole entry): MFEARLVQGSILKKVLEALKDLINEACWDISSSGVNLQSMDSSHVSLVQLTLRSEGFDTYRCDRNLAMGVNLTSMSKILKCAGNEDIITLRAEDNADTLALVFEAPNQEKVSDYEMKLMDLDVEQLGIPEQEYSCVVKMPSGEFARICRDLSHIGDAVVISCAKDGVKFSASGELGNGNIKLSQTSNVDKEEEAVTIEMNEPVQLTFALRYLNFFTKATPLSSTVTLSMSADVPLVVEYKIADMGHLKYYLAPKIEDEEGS

Binder | IC50 [nM] | Kd [nM]
B1 | 1000 | 30 ± 2
B2 | 600 | 2.2 ± 0.2
